Molecular target: RAD51 (UniProt Q06609 1-339)
Assay: EMSA; 1 mM Mg2+, 1 mM ATP; highest affinity, unbound band gone at lowest RAD51 (1.5 uM); RAD51 EMSA: 50 mM Tris-HCl pH 7.5, 50 mM KCl, 1 mM MgCl2, 1 mM ATP, 37 C 10 min; 0.8% TBE agarose + 10 mM KCl at 4 C. Single molecule: T50 (10 mM Tris-HCl pH 7.5, 50 mM NaCl); imaging 10 mM Tris-HCl pH 7.5, 100 mM NaCl, 10% glycerol. Supplementary Table 2 kd values are for TERRA/DNA annealing to (protein-bound) duplex, not …
Conditions: protein: recombinant; label: Cy3; G4, single strand

Chain of RAD51 (Q06609 whole entry): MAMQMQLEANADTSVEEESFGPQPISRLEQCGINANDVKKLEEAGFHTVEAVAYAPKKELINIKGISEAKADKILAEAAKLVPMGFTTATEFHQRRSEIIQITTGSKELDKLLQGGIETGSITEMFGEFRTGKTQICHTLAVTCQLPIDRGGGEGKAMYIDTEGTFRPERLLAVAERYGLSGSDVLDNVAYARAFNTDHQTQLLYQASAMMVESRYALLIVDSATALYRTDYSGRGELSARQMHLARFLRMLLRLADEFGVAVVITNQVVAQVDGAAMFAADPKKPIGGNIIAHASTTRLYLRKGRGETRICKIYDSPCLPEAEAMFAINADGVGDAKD

Binder: UGGCGACGGCAGCGAGGCUUAGGGUUAGGGUUAGGGUUAGGG (structured_RNA) [TERRA-18]
- binding result: binds

Reference: PMC11417404, “The molecular mechanism for TERRA recruitment and annealing to telomeres”
